Assay results reported in patent publication US20230212319A1, “NOVEL ANTIGEN BINDING DOMAINS AND SYNTHETIC ANTIGEN RECEPTORS INCORPORATING THE SAME” (University of Southern California, priority 2020, published 2023).
Where a chain is given by its changes, count along the chain named.

B1: 21994 (protein)
chain: MALPVTALLLPLALLLHAARPQVQLVESGGGLVQPGGSLRLSCAASGFTFTNHAMSWVRQAPGKGLELVSSISGNGRTTYYADSVKGRFTISRDISKNTLDLQMNSLRAEDTAVYYCAKDGGETLVDSRGQGTLVTVSSLEDLKNVFPPEVAVFEPSEAEISHTQKATLVCLATGFYPDHVELSWWVNGKEVHSGVCTDPQPLKEQPALNDSRYCLSSRLRVSATFWQNPRNHFRCQVQFYGLSENDEWTQDRAKPVTQIVSAEAWGRADCGFTSESYQQGVLSATILYEILLGKATLYAVLVSALVLMAMVKRKDSRGRAKRSGSGATNFSLLKQAGDVEENPGPTSMDWIWRILFLVGAATGAHSFEVQLLESGGGLVQPGGSLRLSCAASGFIFSSYAMSWVRQAPGKGQEWVSGVSGTGVNTYYADSVKGRFTISRDNSKNTLYLQMNSLRAEDTAVYYCASGKGWDSGSWYEDYRGQGTLVTVSSTRIQNPDPAVYQLRDSKSSDKSVCLFTDFDSQTNVSQSKDSDVYITDKCVLDMRSMDFKSNSAVAWSNKSDFACANAFNNSIIPEDTFFPSPESSCDVKLVEKSFETDTNLNFQNLSVIGFRILLLKVAGFNLLMTLRLWSSRAKRSGSGVKQTLNFDLLKLAGDVESNPGPSRGHMTEYKPTVRLATRDDVPRAVRTLAAAFADYPATRHTVDPDRHIERVTELQELFLTRVGLDIGKVWVADDGAAVAVWTTPESVEAGAVFAEIGPRMAELSGSRLAAQQQMEGLLAPHRPKEPAWFLATVGVSPDHQGKGLGSAVVLPGVEAAERAGVPAFLETSAPRNLPFYERLGFTVTADVEVPEGPRTWCMTRKPGA
B2: 22009 (protein)
chain: MALPVTALLLPLALLLHAARPLEGKPIPNPLLGLDSTGSGEDLKNVFPPEVAVFEPSKAEIAHTQKATLVCLATGFYPDHVELSWWVNGKEVHSGVCTDPQPLKEQPALNDSRYCLSSRLRVSATFWQNPRNHFRCQVQFYGLSENDEWTQDRAKPVTQIVSAEAWGRADCGITSASYHQGVLSATILYEILLGKATLYAVLVSALVLMAMVKRKDSRGRAKRSGSGATNFSLLKQAGDVEENPGPTSTMDWIWRILFLVGAATGAHSQLQLQESGPGLVKPSETLSLTCTVSGGSVSSSSYYWGWIRQPPGKRLELIGSIYYGGSTYFNPSLKSRVTISVDTSKNQFSLKLSSVTAADTAVYYCAGGDTYGPVGQWPSDYRGQGTLVTVSSGGGGSGGGSFEVQLLESGGGLVQPGGSLRLSCAASGFIFSIYAMSWVRQAPGKGLEWVSGISGSGVNTYYADSVKGRFIISRDNSRNTVYLQMNSLRADDTAVYHCANGKGWDGNTWYEDYRGQGTLVTVSSTREQKLISEEDGSGIQNPDPAVYQLRDSKSSDKSVCLFTDFDSQTNVSQSKDSDVYITDKCVLDMRSMDFKSNSAVAWSNKSDFACANAFNNSIIPEDTFFPSSDVPCDVKLVEKSFETDTNLNFQNLSVIGFRILLLKVAGFNLLMTLRLWSSRAKRSGSGVKQTLNFDLLKLAGDVESNPGPSRGHMTEYKPTVRLATRDDVPRAVRTLAAAFADYPATRHTVDPDRHIERVTELQELFLTRVGLDIGKVWVADDGAAVAVWTTPESVEAGAVFAEIGPRMAELSGSRLAAQQQMEGLLAPHRPKEPAWFLATVGVSPDHQGKGLGSAVVLPGVEAAERAGVPAFLETSAPRNLPFYERLGFTVTADVEVPEGPRTWCMTRKPGA
B3: 21998 (protein)
chain: MDWIWRILFLVGAATGAHSQLQLQESGPGLVKPSETLSLTCTVSGGSVSSSSYYWGWIRQPPGKRLELIGSIYYGGSTYFNPSLKTRVTISVDTSKNQFSLKLSSVTAADTAVYYCAGGDTYGPVGQWPSDYRGQGTLVTVSSLEDLKNVFPPEVAVFEPSEAEISHTQKATLVCLATGFYPDHVELSWWVNGKEVHSGVCTDPQPLKEQPALNDSRYCLSSRLRVSATFWQNPRNHFRCQVQFYGLSENDEWTQDRAKPVTQIVSAEAWGRADCGFTSESYQQGVLSATILYEILLGKATLYAVLVSALVLMAMVKRKDSRGRAKRSGSGATNFSLLKQAGDVEENPGPTSMDWIWRILFLVGAATGAHSFEQVQLVESGGGLVQPGGSLRLSCAASGFTFTNHAMSWVRQAPGKGLELVSSISGNGRTTYYADSVKGRFTISRDISKNTLDLQMNSLRAEDTAVYYCAKDGGETLVDSRGQGTLVTVSSTRIQNPDPAVYQLRDSKSSDKSVCLFTDFDSQTNVSQSKDSDVYITDKCVLDMRSMDFKSNSAVAWSNKSDFACANAFNNSIIPEDTFFPSPESSCDVKLVEKSFETDTNLNFQNLSVIGFRILLLKVAGFNLLMTLRLWSSRAKRSGSGVKQTLNFDLLKLAGDVESNPGPSRGHMTEYKPTVRLATRDDVPRAVRTLAAAFADYPATRHTVDPDRHIERVTELQELFLTRVGLDIGKVWVADDGAAVAVWTTPESVEAGAVFAEIGPRMAELSGSRLAAQQQMEGLLAPHRPKEPAWFLATVGVSPDHQGKGLGSAVVLPGVEAAERAGVPAFLETSAPRNLPFYERLGFTVTADVEVPEGPRTWCMTRKPGA
B4: 21996 (protein)
chain: MALPVTALLLPLALLLHAARPQVQLVESGGGLVQPGGSLRLSCAASGFTFTNHAMSWVRQAPGKGLELVSSISGNGRTTYYADSVKGRFTISRDISKNTLDLQMNSLRAEDTAVYYCAKDGGETLVDSRGQGTLVTVSSLEDLKNVFPPEVAVFEPSEAEISHTQKATLVCLATGFYPDHVELSWWVNGKEVHSGVCTDPQPLKEQPALNDSRYCLSSRLRVSATFWQNPRNHFRCQVQFYGLSENDEWTQDRAKPVTQIVSAEAWGRADCGFTSESYQQGVLSATILYEILLGKATLYAVLVSALVLMAMVKRKDSRGRAKRSGSGATNFSLLKQAGDVEENPGPTSMDWIWRILFLVGAATGAHSFEVQLLESGGGLVQPGGSLRLSCAASGFIFSIYAMSWVRQAPGKGLEWVSGISGSGVNTYYAHSVKGRFIISRDNSRNTVYLQMNSLRADDTAVYHCANGKGWDGNTWYEDYRGQGTLVTVSSTRIQNPDPAVYQLRDSKSSDKSVCLFTDFDSQTNVSQSKDSDVYITDKCVLDMRSMDFKSNSAVAWSNKSDFACANAFNNSIIPEDTFFPSPESSCDVKLVEKSFETDTNLNFQNLSVIGFRILLLKVAGFNLLMTLRLWSSRAKRSGSGVKQTLNFDLLKLAGDVESNPGPSRGHMTEYKPTVRLATRDDVPRAVRTLAAAFADYPATRHTVDPDRHIERVTELQELFLTRVGLDIGKVWVADDGAAVAVWTTPESVEAGAVFAEIGPRMAELSGSRLAAQQQMEGLLAPHRPKEPAWFLATVGVSPDHQGKGLGSAVVLPGVEAAERAGVPAFLETSAPRNLPFYERLGFTVTADVEVPEGPRTWCMTRKPGA
B5: 22014 (protein)
chain: B4 chain with H430D

Each molecule was assayed on L363 cells (assay: JNG assay, co-culture with L363 cells). Conditions: co-culture with L363.
Type: cell-based
Experimental: Cellular supernatant is collected and assayed for the induction of cytokines (e.g., IL2).
JNG (Jurkat cells expressing EGFP under an NFAT promoter) were infected with lentiviral vectors encoding different single chain and multi-chain SARs by spinfection in the presence of 8 µg/ml of Polybrene® (Sigma, Catalog no. H9268). The Jurkat-NFAT-GFP cells are engineered in such a way that the IL-2 promoter, which carries NFAT binding sites, is cloned upstream of the GFP gene. These cells have been used to study signaling via TCR and CAR. The different SARs were stably expressed in Jurkat NFAT-GFP cells by lentiviral mediated gene transfer, followed by selection with puromycin or blasticidin. No drug selection was used in case the construct lacked an antibiotic resistance gene. The SAR-expressing Jurkat-NFAT-GFP cells were cocultured with the target cells at E:T ratio of approximately 1:2 for approximately 4 hours to 18 hours. When the interaction between SIRs and their target antigen results in activation of the NFAT pathway, GFP expression is induced. […] GFP expression was monitored by FACS analysis. The Jurkat-NFAT-GFP (parental) cells were used as control. The structure of different constructs can be determined based on their names. […] The sequence of the other constructs in the table can be similarly determined from their names and by referring to the different Tables of this disclosure that provide the names and SEQ ID NO of the different modules. Alternatively, the composition and modular architecture of the different SAR constructs can be determined from their sequences by bioinformatics tools, including using nucleic acid and amino acids homology searches. A SAR is considered positive in the assay in case the SAR expressing Jurkat-NFAT-GFP cells show greater % GFP positive cells when cultured with the target cell line as compared to parental Jurkat-NFAT-GFP cells. […] In general, the number +/-, +, 2+, 3+, 4+, 5+ refer to approximately 5%, 10%, 20%, 30%, 40% and 50% GFP positive cells. The % of GFP induction in the above assay is dependent not only the relative strength of the SAR but also, among other factors, on the relative level of expression of the SAR in the JNG cells and the relative level of expression of the target antigen in the target cell line. To control for the difference in gene transduction efficiency of the different SAR constructs, the experiment was conducted with JNG cells transduced with SAR constructs co-expressing a drug resistance gene (e.g., puromycin or PAC) followed by drug selection to generate a stable population of SAR-expressing cells. It is to be noted that the drug resistance gene (e.g., PAC) in the SAR constructs is optional and in vivo studies were conducted with SAR constructs lacking the PAC gene.

Row | Molecule | NFAT-GFP ASSAY: L363
1 | B1 | L363 (+) (refer to approximately 5%, 10%, 20%, 30%, 40% and 50% GFP positive cells)
2 | B2 | L363 (+/-) (refer to approximately 5%, 10%, 20%, 30%, 40% and 50% GFP positive cells)
3 | B3 | L363 (+) (refer to approximately 5%, 10%, 20%, 30%, 40% and 50% GFP positive cells)
4 | B4 | L363 (+) (refer to approximately 5%, 10%, 20%, 30%, 40% and 50% GFP positive cells)
5 | B5 | +/- (refer to approximately 5%, 10%, 20%, 30%, 40% and 50% GFP positive cells)
